Data: PMC3172200 (PLoS Biology, 2011)
Where no end group is shown, it is not given here. [ ]: non-standard residue; d: D form.

T1: recombinant wild type SEB with N-terminal His6-tag (S. aureus COL, UniProt P01552 28-266)
T1 sequence: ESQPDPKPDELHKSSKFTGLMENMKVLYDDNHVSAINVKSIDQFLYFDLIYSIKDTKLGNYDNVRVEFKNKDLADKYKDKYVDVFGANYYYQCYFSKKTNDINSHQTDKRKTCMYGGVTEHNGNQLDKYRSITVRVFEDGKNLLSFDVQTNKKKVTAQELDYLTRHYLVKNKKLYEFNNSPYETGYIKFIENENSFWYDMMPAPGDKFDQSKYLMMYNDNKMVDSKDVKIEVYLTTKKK


Target: T1, recombinant wild type SEB with …
Test: western blot of SEB bound to transfected cells
Conditions: both partners purified

Binder	binding result
ASPMLVAYDA (D-Ala at both termini, source: synthetic peptide) [p2TA (SPMLVAYD; CD28 8-15), form for biological assays]	binds
[dA]HVKGKHLCP[dA] (source: synthetic peptide) [p1TA (HVKGKHLCP; CD28 116-124), form for biological assays]	binds
